Assay results reported in PMC12120064.

Tests used:
Assay in all cases: CEACAM1 co-IP (PLA also mentioned)
Settings in all cases: reference: full-length 4L CEACAM1; sites Y493,Y520
SHP-1 = SHP-1 (UniProt P29350)
SYK = SYK (UniProt P43405)
filamin A (FLNA) = filamin A (FLNA) (UniProt P21333)

Measured: binding against the reference

CEACAM1 (CEACAM1-4L) (from UniProt P13688) Y493F/Y520F
weaker: all assays above
